The values that follow are results of earlier work, collected in article PMC12525431, “Hsp70 Peptides Induce TREM-1-Dependent and TREM-1-Independent Activation of Cytotoxic Lymphocytes” (International Journal of Molecular Sciences, 2025).

The data set deals with T1, TREM-1 (Homo sapiens, UniProt Q9NP99).
T1 construct: causes dissociation of the TREM-1 exocellular domain; made in house
The conditions noted are these: ref [30],[31],[32],[33].

T1 sequence (Q9NP99 21-205 limits assumed): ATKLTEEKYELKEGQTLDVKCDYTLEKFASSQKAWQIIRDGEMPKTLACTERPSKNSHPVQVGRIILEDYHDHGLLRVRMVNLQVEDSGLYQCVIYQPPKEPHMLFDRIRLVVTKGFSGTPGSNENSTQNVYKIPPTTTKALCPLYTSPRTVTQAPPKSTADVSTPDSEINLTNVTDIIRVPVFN

B1: eCIRP: RNA-binding protein (eCIRP), TREM-1 ligand (protein, UniProt Q14011 1-172, looked up)
Cold-inducible RNA-binding …: MASDEGKLFVGGLSFDTNEQSLEQVFSKYGQISEVVVVKDRETQRSRGFGFVTFENIDDAKDAMMAMNGKSVDGRQIRVDQAGKSSDNRSRGYRGGSAGGRGFFRGGRGRGRGFSRGGGDRGYGGNRFESRSGGYGGSRDYYSSRSQSGGYSDRSSGGSYRDSYDSYATHNE
Regarding B1, the TREM-1 ligand entry was “TREM-1 ligands”.
